Assay results as given in article doi:10.1101/2024.09.24.614852.

Molecular target: tau 2N4R wild type (tau-441) (human, UniProt P10636-8 1-441)
Assay: EMSA

B1: 24-bp duplex (dsDNA)
DNA 1: TCGACACGGAAATGTTGAATACTA
DNA 2: TAGTATTCAACATTTCCGTGTCGA
- binding result: binds
